We go through seven molecules from patent EP2119770B1, “Production of alpha-oxyfunctionalized carbonyl compounds” (priority 2008, dated 2009).

In one series the test system is C=CC(C)=O. Nature of the series: Enzyme kinetics (Lineweaver-Burk plots), Gox2107. The format is biochemical, Gluconobacter oxydans. The following applies: other: Gox2107; substrate 0.025 to 10 mM. How it is done: (§1) Determination of pH and temperature optima and enzyme kinetics: The optimum pH for enzyme activities was determined by a modified method of Salusjärvi, T. et al., Appl. Microbiol. Biotechnol. 65:306-314 (2004) using the following buffer system (50 mM final concentration each): sodium acetate pH 4.5 - 6.5, potassium phosphate pH 6.5 - 8.0, Tris-HCl pH 8.0 - 10. Temperature optima for the biocatalysts were determined under standard reaction conditions at temperatures ranging from 20 - 80 °C. The Michaelis constant (Km) for the proteins was determined from purified enzyme by Lineweaver-Burk plots. Assays were performed at optimum pH for each enzyme and at 30 °C using the top substrate and a targeted substrate. The Km for each substrate was calculated using concentrations of 0.0025 to 10 mM, and the Km NAD(P)H and NAD(P) was calculated using concentrations of 0.01 to 0.5 mM
(§2) The Michaelis constants were determined from purified enzyme by Lineweaver-Burk plots. The Km and Vmax values for the substrates were calculated using concentrations of 0.025 to 10 mM, The optimal pH values and temperatures for enzyme activities are also shown in Tab. 11. Tab. 11: Summary of kinetic parameters

A further series has as its system O=C1C=CC(=O)c2ccccc21. In words: Enzyme kinetics (Lineweaver-Burk plots), Gox2107. The conditions noted are these: other: Gox2107; substrate 0.025 to 10 mM. The class given is biochemical, Gluconobacter oxydans. As for the experimental part: as §1, §2
For a further series, the system named is CCC(=O)C(C)=O. In words: Enzyme kinetics (Lineweaver-Burk plots), Gox0644. The class given is biochemical, Gluconobacter oxydans. The following applies: other: Gox0644; substrate 0.025 to 10 mM. How it is done:
as §1, §2

Another series has as its system O=CC(=O)c1ccccc1. Nature of the series: Enzyme kinetics (Lineweaver-Burk plots), Gox0644. The class given is biochemical, Gluconobacter oxydans. The conditions noted are these: other: Gox0644; substrate 0.025 to 10 mM. How it is done: as §1, §2
Substrate in series [1]: CC=O
Nature of the series: Enzyme kinetics (Lineweaver-Burk plots), Gox0313. The format is biochemical, Gluconobacter oxydans. The conditions noted are these: other: Gox0313; substrate 0.025 to 10 mM. As for the experimental part: as §1, §2

Substrate in series [2]: CCC(=O)C(C)=O
Nature of the series: Enzyme kinetics (Lineweaver-Burk plots), Gox0313. The format is biochemical, Gluconobacter oxydans. The following applies: other: Gox0313; substrate 0.025 to 10 mM. How it is done:
as §1, §2

Substrate in series [3]: C=CC(C)=O
Nature of the series: purified protein, by the assay type. The following applies: other: Gox0502; substrate 0.025 to 10 mM.

Substrate in series [4]: CC=O
Nature of the series: Enzyme kinetics (Lineweaver-Burk plots), aldehyde dehydrogenase Gox1122. The class given is biochemical, Gluconobacter oxydans.

Substrate in series [5]: NC(=O)c1ccc[n+]([C@@H]2O[C@H](COP(=O)(O)OP(=O)(O)OC[C@H]3O[C@@H](n4cnc5c(N)ncnc54)[C@H](OP(=O)(O)O)[C@@H]3O)[C@@H](O)[C@H]2O)c1
Nature of the series: purified protein, by the assay type. The conditions noted are these: other: Gox1122; for the cofactor NADP.

Substrate in series [6]: CC(=O)C=O
In words: Enzyme kinetics (Lineweaver-Burk plots), Gox1615. The format is biochemical, Gluconobacter oxydans. The conditions noted are these: other: Gox1615; substrate 0.025 to 10 mM. How it is done: as §1, §2

Substrate in series [7]: CCCC(=O)C(C)=O
Nature of the series: Enzyme kinetics (Lineweaver-Burk plots), Gox1615. The format is biochemical, Gluconobacter oxydans. The following applies: other: Gox1615; substrate 0.025 to 10 mM. How it is done:
as §1, §2

Substrate in series [8]: C=CC(C)=O
Nature of the series: Enzyme kinetics (Lineweaver-Burk plots), Gox2684. The format is biochemical, Gluconobacter oxydans. The conditions noted are these: other: Gox2684; substrate 0.025 to 10 mM. How it is done: as §1, §2

Setting [9] is: other: Gox1122, aldehyde concentrations from 0.0025 to 10 mM.
The mark [10] stands for this setting: other: Tab. 11, Gox1122, substrate 0.025 to 10 mM.

For orientation: Km means the concentration of substrate that gives half-maximal velocity. Consider Gox2107 (Gluconobacter oxydans 621H), for which, in the series on C=CC(C)=O, the Km is reported as 3.8 mM and the Vmax came out at 119 µmol/min/mg. Also, in the series on O=C1C=CC(=O)c2ccccc21, the Km is reported as 0.01 mM and the Vmax came out at 217 U/mg protein.

As to Gox0644 (Gluconobacter oxydans 621H), in the series with CCC(=O)C(C)=O, the Km is 5.6 mM and the Vmax amounted to 79.0 µmol/min/mg. Further, in the series with O=CC(=O)c1ccccc1, the Km is 4.7 mM and the Vmax worked out at 93.0 µmol/min/mg.

B1: Gox0313 (Gluconobacter oxydans 621H) (protein)
chain: MADTMLAAVVREFGKPLSIERLPIPDIKPHQILVKVDTCGVCHTDLHAARGDWPSKPNPPFIPGHEGVGHIVAVGSQVGDFVKTGDVVGVPWLYSACGHCEHCLGGWETLCEKQDDTGYTVNGCFAEYVVADPNYVAHLPSTIDPLQASPVLCAGLTVYKGLKMTEARPGQWVAVSGVGGLGQMAVQYAVAMGMNVVAVDIDDEKLATAKKLGASLTVNAKDTDPARFIQQQIGGAHGALVTAVGRTAFSQAMGYARRGGTIVLNGLPPGDFPVSIFDMVMNGTTIRGSIVGTRLDMIEAMDFFARGKVKSVVTPGKLENINTIFDDLQNGRLEGRTVLDFRS
Regarding B1, in [1], the Km came out at 0.5 mM and the Vmax was determined as 95 U/mg protein. In addition, in series [2], the Km is recorded as 3.1 mM and the Vmax is 97 U/mg protein.

B2: Gox0502 (Gluconobacter oxydans 621H) (protein)
chain: MPTLFDPIDFGPIHAKNRIVMSPLTRGRADKEAVPTPIMAEYYAQRASAGLIITEATGISREGLGWPFAPGIWSDAQVEAWKPIVAGVHAKGGKIVCQLWHMGRMVHSSVTGTQPVSSSATTAPGEVHTYEGKKPFEQARAIDAADISRILNDYENAARNAIRAGFDGVQIHAANGYLIDEFLRNGTNHRTDEYGGVPENRIRFLKEVTERVIAAIGADRTGVRLSPNGDTQGCIDSAPETVFVPAAKLLQDLGVAWLELREPGPNGTFGKTDQPKLSPQIRKVFLRPLVLNQDYTFEAAQTALAEGKADAIAFGRKFISNPDLPERFARGIALQPDDMKTWYSQGPEGYTDYPSATSGPN
Turning to B2, in [3], the Km was 0.1 mM and the Vmax was found to be 21.0 µmol/min/mg.

B3: Gox1122 (Gluconobacter oxydans 621H) (protein)
chain: MAYATINPYTGETLKTFPEATDQEVQTALTEAYDAFKSWRHTPFAERAKIMTAAANILRRDIDKYSKLLTLEMGKIYAEAKAETILSAEIFEYYAKNAEELLKAEKLPVADPKEGEAVLIHQPQGIVFAIEPWNFPFYQIARIIAPQLSAGNTVILKHASNVPQCAAAFDDLMKEAGLPKGGFRNLYAARHHTETILKDPRVCGVALTGSEGAGAVVAGIAAQALKKSTMELGGSDAFLVLDDADLEKTAKWAAFGRHWNAGQVCVSAKRLIVADAVYDRFVELYKAEVAKLIPGDPMDPKTTLAPLSSQKAADDLKAQVEEAKKHGAVVEAIGPSVPEKGAFFQPLLMTNLHENNEARLWEFFGPVTQLYRAKDDADAIRIANDSPFGLGGSVFTKDTQRGVKVAEQIYTGMVYINHPTMVKADLPFGGVARSGYGRELIGLGIKEFVNHKLIDVVDIDAPF
Turning to B3, the Km in [4] (setting [9]) is 255 µM; in [4] (setting [10]) it was 200 µM; in series [5] it was 73 µM. In addition, the values for the Vmax in series [4] (setting [9]) and in series [4] (setting [10]) were 196 U/mg protein and 196 µmol/min/mg, respectively.

B4: Gox1615 (Gluconobacter oxydans 621H) (protein)
chain: MASDTIRIPGIDTPLSRVALGTWAIGGWMWGGPDDDNGVRTIHAALDEGINLIDTAPVYGFGHSEEIVGRALAEKPNKAHVATKLGLHWVGEDEKNMKVFRDSRPARIRKEVEDSLRRLRVETIDLEQIHWPDDKTPIDESARELQKLHQDGKIRALGVSNFSPEQMDIFREVAPLATIQPPLNLFERTIEKDILPYAEKHNAVVLAYGALCRGLLTGKMNRDTTFPKDDLRSNDPKFQKPNFEKYLAAMDEFEKLAEKRGKSVMAFAVRWVLDQGPVIALWGARKPGQVSGVKDVFGWSLTDEEKKAVDDILARHVPNPIDPTFMAPPARD
As to B4, in series [6], the Km is given as 3.8 mM and the Vmax is 22.0 µmol/min/mg. In addition, in [7], the Michaelis-Menten constant (Km) came to 3.2 mM and the Vmax worked out at 6.0 µmol/min/mg.

B5: Gox2684 (Gluconobacter oxydans 621H) (protein)
chain: MTSLFEPIELGSIYAKNRILMAPLTRGRGTRDHVPTPIMAEYYAQRAGAGLIISEATGISREGLGWPYAPGLWSQEQVEAWKPITAAVHAKGGKIVAQLWHMGRMVHSSVTGQQPVSCSATKAPEALHTYDGKQAPEVARPLTKEDIARILNDYENAARNALQAGFDGVQIHAANGYLIDEFLRDGTNHRSDEYGGSPENRIRFLREVTERVIATIGAHKTSVRLSPNGDTVGCIDSHPEQVFVPAAKLLNDLDIAFLELREPGPNGTFGKTDQPKLHGPIREVFRKPLVLNQDYTREEAIETVATGVADAISFGRPFLANPDLVRRLEDNLPQNKDDIRTWYSQGAEGYTDYPLAR
Take B5: in [8], the Km was 0.3 mM and the Vmax was determined as 11.3 µmol/min/mg.
